Reference: article PMC535902

Key:
[1] = target: Rhodobacter capsulatus porphobilinogen synthase (Rhodobacter capsulatus) (UniProt P42504)
[2] = target: Rhodobacter capsulatus porphobilinogen synthase (Rhodobacter capsulatus) (UniProt P42504); test: AUC; sedimentation equilibrium, 4 °C, 10 mM Tris-HCl pH 7.7 with 0.1 mM DTT or 1 mM βME, 12.3 uM in monomer (440 ug/ml), 8,000-14,000 rpm, global fit to a single species model
[3] = target: Rhodobacter capsulatus porphobilinogen synthase (Rhodobacter capsulatus) (UniProt P42504); test: SEC; Superose 6 (10 x 300 mm), 0.5 ml/min, 100 mM BTP pH 8.6, 100 uL of a 200 ug/ml solution; column calibrated with standards

## Rhodobacter capsulatus porphobilinogen synthase (from UniProt P42504 1-332) (enzyme)
[1]
  specific activity of the enzyme against protein concentration (0.01 to 40 ug/ml; from ~150 at the lowest to ~450 umol h^-1 mg^-1 at the highest) (μmol h^-1 mg^-1): 450
[2]
  stoichiometry N: 6
[3]
  stoichiometry N: 6
